Data reported in patent publication US20220411498A1 (JACOBIO PHARMACEUTICALS, published 2022).

Tests used:
[1] = target: T1, huCD39 on the cell surface (293T/17-huCD39 cells) (human, UniProt P49961 1-510); experiment: flow cytometry on 293T/17-huCD39 cells
T1 construct: whole, on cells; also called natural CD39 protein on the cell surface; huCD39 antigen on the cell surface
T1 sequence (looked up): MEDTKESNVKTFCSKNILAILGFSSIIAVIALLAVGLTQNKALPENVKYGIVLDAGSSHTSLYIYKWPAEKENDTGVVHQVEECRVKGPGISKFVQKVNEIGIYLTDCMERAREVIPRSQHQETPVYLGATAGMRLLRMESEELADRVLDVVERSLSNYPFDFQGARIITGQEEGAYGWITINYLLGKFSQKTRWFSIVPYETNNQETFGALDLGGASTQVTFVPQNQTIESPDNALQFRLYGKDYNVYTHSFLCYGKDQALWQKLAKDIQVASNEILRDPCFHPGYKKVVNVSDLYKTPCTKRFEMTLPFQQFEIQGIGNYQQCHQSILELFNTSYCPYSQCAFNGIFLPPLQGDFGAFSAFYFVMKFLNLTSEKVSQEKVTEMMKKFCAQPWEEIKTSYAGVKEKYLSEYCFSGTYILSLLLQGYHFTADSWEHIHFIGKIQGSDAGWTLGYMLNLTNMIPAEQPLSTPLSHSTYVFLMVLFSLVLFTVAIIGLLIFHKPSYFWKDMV
Method: Flow cytometry assay: recombinant host cell line 293T/17-huCD39 cells expressing huCD39 were used to evaluate the binding ability of the humanized antibody to the natural CD39 protein on the cell surface. The recombinant cells were resuspended in PBS buffer, 2×10⁶ cells were added to a 96-well U-plate, and a certain gradient dilution range of the humanized antibody was incubated for 1h at 4° C. in a refrigerator or on ice. The mixture was centrifuged at 1500 rpm for 3 min at 4° C., and washed three times with PBS buffer. Then, incubated for 30 min at 4° C. in the refrigerator or on ice with diluted Alexa Fluor 488-labeled goat anti-human polyclonal antibody (pAb): Goat anti-Human IgG (H+L) Cross-Adsorbed Secondary Antibody, Alexa Fluor 488 (thermo), and finally the cells were washed three times with PBS as described above and analyzed in MACSQuant flow cytometry. Data plots were generated and affinity data were counted using GraphPad Prism software (FIG. 5). The results are shown in Table 5, and the EC₅₀ values of 293T/17-huCD39 humanized antibody were all at the level of 10⁻⁹M.

[2] = target: T2, huCD39 recombinant protein (human, UniProt P49961 38-478); experiment: indirect ELISA, huCD39 recombinant protein coated at 1 ug/mL
T2 construct: the entry is the extracellular domain and ends in a histidine tag; also called soluble huCD39 protein; human CD39 extracellular domain recombinant protein
T2 sequence: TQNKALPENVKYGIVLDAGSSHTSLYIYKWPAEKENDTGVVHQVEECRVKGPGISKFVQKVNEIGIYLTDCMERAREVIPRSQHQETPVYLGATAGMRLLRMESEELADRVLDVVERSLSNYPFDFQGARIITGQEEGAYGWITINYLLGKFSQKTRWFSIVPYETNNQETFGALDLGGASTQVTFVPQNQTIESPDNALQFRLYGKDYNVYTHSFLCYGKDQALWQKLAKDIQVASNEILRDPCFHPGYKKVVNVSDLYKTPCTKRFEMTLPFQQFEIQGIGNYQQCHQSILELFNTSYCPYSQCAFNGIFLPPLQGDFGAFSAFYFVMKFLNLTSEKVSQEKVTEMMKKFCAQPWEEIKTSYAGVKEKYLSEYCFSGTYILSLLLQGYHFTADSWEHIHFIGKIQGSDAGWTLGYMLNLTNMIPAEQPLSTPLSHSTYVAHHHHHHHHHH
Method: The next day, washed 5 times with PBS buffer and blocked with 200 μL/well of 2% skim milk powder for 1 h. A certain dose range of CD39 humanized antibody was added, and incubated for 1 h at room temperature. Then, washed 5 times with PBST washing buffer (PBS, 0.05% Tween 20), 100 μL HRP-labeled secondary antibody was added to each well, and incubated for 30 min at room temperature. The plates were washed 5 times again, and TMB (Life Technologies) was added for color development for 5 to 10 min. Finally, 1N HCl was added to terminate the reaction, and the OD value was measured at 450 nm. GraphPad Prism software was used to generate data plots and count the affinity data (FIG. 4). The EC₅₀ values of the binding activity of the three humanized antibodies were all at the level of 10⁻¹⁰ M.

[3] = target: T1, huCD39 on the cell surface …; experiment: cell-based or functional assay
[4] = target: T1, huCD39 on the cell surface …; experiment: cell-based or functional assay; remark: listed apart in the source

| Binder | Bottom [1] | EC50 [1] [nM] | Top [1] | Bottom [2] [OD450] | EC50 [2] [nM] | Top [2] [OD450] | Blocking of ATPase activity on cell surface (293T/17-huCD39, CellTiter Glo): Bottom [3] | Blocking of ATPase activity on cell surface (293T/17-huCD39, CellTiter Glo): EC50 [3] [nM] | Blocking of ATPase activity on cell surface (293T/17-huCD39, CellTiter Glo): Top [3] | EC50 of reversal of ATP-mediated proliferation inhibition of human CD4+ T cells (CFSE, flow cytometry) [4] [nM] | EC50 of reversal of ATP-mediated proliferation inhibition of human CD8+ T cells (CFSE, flow cytometry) [4] [nM] |
| --- | --- | --- | --- | --- | --- | --- | --- | --- | --- | --- | --- |
| M201 HuH1L1(D-E) G2C (antibody, human IgG2, kappa, V domains shown, Humanized antibody, expressed in 293F cells) VH: EVQLVESGGGLVQPGGSLRLSCAASGFTFSDYGMHWVRQAPGKGLEWVSYISSGSSIMYYADTVKGRFTISRDNAKNSLYLQMNSLRAEDTAVYYCARDLYYDHVLDYWGQGTLLTVSS VL: DIQMTQSPSSLSASVGDRVTITCRASQEIRGYLIWLQQKPGGAIKRLIYAASTLESGVPSRFSGSRSGTDFTLTISSLQPEDFATYYCLQYTSYPRTFGGGTKVEIKR | -2.15 | 2.94 | 329 | 0.068 | 0.514 | 1.18 | 31300 | 0.026 | 152000 | 25.5 | 60.4 |
| h201H3.1+h219L1.1 G2C (antibody, human IgG2, kappa, V domains shown, Humanized antibody, expressed in 293F cells) VH: QVQLVESGGGVVQPGRSLRLSCAASGFTFSDYGMHWVRQAPGKGLEWVAYISSGSSIMYYADTVKGRFTISRDNSKNTLYLQMNSLRAEDTAVYYCARDLYYDHVLDYWGQGTTVTVSS VL: DIQMTQSPSSLSASVGDRVTITCRASQEVSGYLNWLQQKPGKAIKRLIYAASTLESGVPSRFSGSRSGSDYTLTISSLQPEDFATYYCLQYASYPRTFGQGTKVEIKR | 8.18 | 3.1 | 266 | 0.085 | 0.709 | 0.991 | 38800 | 0.077 | 250000 | 0.646 | 1.35 |
